Test results as given in publication PMC8944910.
pKd: −log10 of the molar value. Where two headings read alike, the source gives them in different places.

Tests used:
[1] = target: His-tagged eukaryotic translation initiation factor 1 (His–eIF1), labelled with NT650 (UniProt P32911); assay: temperature-related intensity change assay
[2] = target: His-tagged eukaryotic translation initiation factor 1 (His–eIF1), labelled with NT650 (UniProt P32911); assay: temperature-related intensity change assay; remark: listed apart in the source

UniProt P32911, sequence (P32911 whole entry): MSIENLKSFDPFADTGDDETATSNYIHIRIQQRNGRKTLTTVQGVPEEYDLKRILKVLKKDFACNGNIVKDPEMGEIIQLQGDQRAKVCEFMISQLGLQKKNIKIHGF

| Substance | pKd [1] | pKd [2] |
| --- | --- | --- |
| 40S ribosomal subunit from wild-type control (BY4741 / BCD1) yeast cells (from UniProt P05750 1-240) (complex) | 7.64 |  |
| hypo-2′-O-methylated 40S ribosomal subunit from bcd1-D72A yeast cells (from UniProt P05750 1-240) (complex) | 7.19 | 7.20 |
